B1: purified mouse MEKK2 (protein)
chain: MDDQQALNSIMQDLAVLHKASRPALSLQETRKAKPSSPKKQNDVRVKFEHRGEKRILQVTRPVKLEDLRSKSKIAFGQSMDLHYTNNELVIPLTTQDDLDKAVELLDRSIHMKSLKILLVVNGSTQATNLEPSPSPEDLNNTPLGAERKKRLSVVGPPNRDRSSPPPGYIPDILHQIARNGSFTSINSEGEFIPESMDQMLDPLSLSSPENSGSGSCPSLDSPLDGESYPKSRMPRAQSYPDNHQEFTDYDNPIFEKFGKGGTYPRRYHVSYHHQEYNDGRKTFPRARRTQGTSFRSPVSFSPTDHSLSTSSGSSVFTPEYDDSRIRRRGSDIDNPTLTVTDISPPSRSPRAPTNWRLGKLLGQGAFGRVYLCYDVDTGRELAVKQVQFNPESPETSKEVNALECEIQLLKNLLHERIVQYYGCLRDPQEKTLSIFMELSPGGSIKDQLKAYGALTENVTRKYTRQILEGVHYLHSNMIVHRDIKGANILRDSTGNIKLGDFGASKRLQTICLSGTGMKSVTGTPYWMSPEVISGEGYGRKADIWSVACTVVEMLTEKPPWAEFEAMAAIFKIATQPTNPKLPPHVSDYTRDFLKRIFVEAKLRPSAEELLRHMFVHYH
B2: His-tagged hMEKK2 (polyhistidine-hMEKK2 fusion) (protein)
chain: HHHHHHMDDQQALNSIMQDLAVLHKASRPALSLQETRKAKSSSPKKQNDVRVKFEHRGEKRILQFPRPVKLEDLRSKAKIAFGQSMDLHYTNNELVIPLTTQDDLDKAVELLDRSIHMKSLKILLVINGSTQATNLEPLPSLEDLDNTVFGAERKKRLSIIGPTSRDRSSPPPGYIPDELHQVARNGSFTSINSEGEFIPESMDQMLDPLSLSSPENSGSGSCPSLDSPLDGESYPKSRMPRAQSYPDNHQEFSDYDNPIFEKFGKGGTYPRRYHVSYHHQEYNDGRKTFPRARRTQGTSLRSPVSFSPTDHSLSTSSGSSIFTPEYDDSRIRRRGSDIDNPTLTVMDISPPSRSPRAPTNWRLGKLLGQGAFGRVYLCYDVDTGRELAVKQVQFDPDSPETSKEVNALECEIQLLKNLLHERIVQYYGCLRDPQEKTLSIFMEYMPGGSIKDQLKAYGALTENVTRKYTRQILEGVHYLHSNMIVHRDIKGANILRDSTGNVKLGDFGASKRLQTICLSGTGMKSVTGTPYWMSPEVISGEGYGRKADIWSVACTVVEMLTEKPPWAEFEAMAAIFKIATQPTNPKLPPHVSDYTRDFLKRIFVEAKLRPSADELLRHMFVHYH

Biological target: GST-MKK4 fusion protein (Upstate Biotechnologies, Inc) [GST: P08515]

| Protein | phosphorylation of GST-MKK4 in a kinase reaction with [gamma-32P]-ATP (SDS-PAGE, phosphorimager) |
| --- | --- |
| B1 | The ability of extracts containing his-tagged hMEKK2 to phosphorylate GST-MKK4 was comparable to the activity of purified mouse MEKK2 |
| B2 | comparable to the activity of purified mouse MEKK2, and significantly above the background levels seen with control extracts |

Source: patent publication US20030064496
